Experiment in all cases: Kd (EC50 corrected by depletion factor)
One series has as its target T1, ERI3 (UniProt O43414).
T1 sequence: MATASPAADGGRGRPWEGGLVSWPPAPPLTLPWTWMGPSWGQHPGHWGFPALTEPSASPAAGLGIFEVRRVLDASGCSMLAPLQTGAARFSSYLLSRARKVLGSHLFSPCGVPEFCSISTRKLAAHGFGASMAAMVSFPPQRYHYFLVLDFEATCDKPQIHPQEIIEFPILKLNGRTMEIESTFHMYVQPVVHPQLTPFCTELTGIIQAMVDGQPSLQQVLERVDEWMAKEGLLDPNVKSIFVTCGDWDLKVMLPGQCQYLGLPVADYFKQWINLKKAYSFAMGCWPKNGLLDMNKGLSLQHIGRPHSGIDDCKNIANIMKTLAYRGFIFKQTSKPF
Summed up: (§1)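 Free RNA oligos (0 nM to 30 μM) competed for 1 h at 4°C in HEK293-FT lysate (2.5 mg protein/well) before a 30 min, 4°C pulldown with the same oligos on NHS-Sepharose beads. Bound proteins were quantified by label-free LC-MS/MS and normalised to the control. Kd was found by multiplying EC50, from a four-parameter log-logistic fit, by a protein-dependent depletion factor.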

In a further series the target is PIP5K1A (UniProt Q99755). Summed up: as §1
A further series concerns the target T2, PUF60 (UniProt Q9UHX1).
T2 sequence: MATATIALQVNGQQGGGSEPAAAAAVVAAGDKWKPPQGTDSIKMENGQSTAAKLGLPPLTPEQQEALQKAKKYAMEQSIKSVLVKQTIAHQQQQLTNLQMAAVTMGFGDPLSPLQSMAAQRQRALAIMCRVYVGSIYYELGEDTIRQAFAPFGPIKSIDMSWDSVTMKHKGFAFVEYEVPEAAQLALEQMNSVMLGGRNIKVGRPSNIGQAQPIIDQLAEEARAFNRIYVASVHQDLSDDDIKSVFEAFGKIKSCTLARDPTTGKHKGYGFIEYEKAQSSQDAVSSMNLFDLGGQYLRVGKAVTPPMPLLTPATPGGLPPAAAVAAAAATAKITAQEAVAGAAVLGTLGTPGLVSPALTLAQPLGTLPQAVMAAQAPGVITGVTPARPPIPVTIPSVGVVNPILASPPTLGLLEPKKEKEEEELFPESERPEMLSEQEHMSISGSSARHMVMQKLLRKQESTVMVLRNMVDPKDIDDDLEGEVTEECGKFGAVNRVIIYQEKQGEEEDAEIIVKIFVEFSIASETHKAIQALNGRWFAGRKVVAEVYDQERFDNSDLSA
A digest of the protocol: as §1

In another series the target is MRPL38 (UniProt Q96DV4). Summed up:
as §1

A further series deals with T3, SRSF7 (UniProt Q16629).
T3 sequence: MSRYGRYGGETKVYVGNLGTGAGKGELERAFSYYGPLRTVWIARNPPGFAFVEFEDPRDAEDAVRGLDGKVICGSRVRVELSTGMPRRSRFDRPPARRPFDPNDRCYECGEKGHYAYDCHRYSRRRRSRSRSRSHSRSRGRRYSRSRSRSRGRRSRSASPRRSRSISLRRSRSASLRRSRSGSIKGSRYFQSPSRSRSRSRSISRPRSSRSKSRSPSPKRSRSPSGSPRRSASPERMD
Summed up:
as §1

For another series, the target named is T4, FASTKD2 (UniProt Q9NYY8).
T4 sequence: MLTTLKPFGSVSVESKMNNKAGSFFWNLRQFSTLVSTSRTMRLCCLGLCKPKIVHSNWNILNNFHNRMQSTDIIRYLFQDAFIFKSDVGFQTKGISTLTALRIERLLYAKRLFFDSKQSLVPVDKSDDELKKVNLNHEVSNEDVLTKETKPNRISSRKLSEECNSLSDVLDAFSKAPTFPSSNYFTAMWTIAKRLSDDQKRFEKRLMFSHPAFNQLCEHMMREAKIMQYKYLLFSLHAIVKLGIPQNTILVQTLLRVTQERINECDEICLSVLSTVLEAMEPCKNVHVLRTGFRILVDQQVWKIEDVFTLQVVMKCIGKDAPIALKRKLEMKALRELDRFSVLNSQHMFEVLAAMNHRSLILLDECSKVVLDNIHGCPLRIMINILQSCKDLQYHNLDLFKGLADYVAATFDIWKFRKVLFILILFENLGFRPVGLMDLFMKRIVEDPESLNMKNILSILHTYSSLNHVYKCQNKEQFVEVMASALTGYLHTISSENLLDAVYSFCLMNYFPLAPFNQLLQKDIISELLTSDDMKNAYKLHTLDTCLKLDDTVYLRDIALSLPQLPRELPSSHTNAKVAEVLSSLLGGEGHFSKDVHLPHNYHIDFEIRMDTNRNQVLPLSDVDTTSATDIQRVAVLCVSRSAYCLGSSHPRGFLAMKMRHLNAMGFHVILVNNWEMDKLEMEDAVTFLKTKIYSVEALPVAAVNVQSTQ
Summed up:
as §1

Sequence of PIP5K1A (Q99755 whole entry): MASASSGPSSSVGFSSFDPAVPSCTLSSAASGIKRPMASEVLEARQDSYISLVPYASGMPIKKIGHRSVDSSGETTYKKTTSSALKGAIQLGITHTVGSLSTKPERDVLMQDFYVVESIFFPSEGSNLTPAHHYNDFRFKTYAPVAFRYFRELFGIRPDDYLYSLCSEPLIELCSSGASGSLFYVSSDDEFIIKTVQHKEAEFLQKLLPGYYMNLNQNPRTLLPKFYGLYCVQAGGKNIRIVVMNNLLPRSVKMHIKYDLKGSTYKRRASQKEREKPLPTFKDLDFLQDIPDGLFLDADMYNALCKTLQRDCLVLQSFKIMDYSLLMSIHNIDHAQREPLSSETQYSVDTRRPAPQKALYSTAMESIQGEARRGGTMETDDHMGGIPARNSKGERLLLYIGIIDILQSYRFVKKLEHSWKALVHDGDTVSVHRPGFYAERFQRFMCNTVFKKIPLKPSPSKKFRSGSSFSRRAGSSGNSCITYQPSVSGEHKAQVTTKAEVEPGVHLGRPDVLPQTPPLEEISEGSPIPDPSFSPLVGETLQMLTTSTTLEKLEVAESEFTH

As usually defined, the Kd is the free concentration of one partner at which half of the binding sites on the other are occupied at equilibrium, for simple one-to-one binding. As for AAUAAA, the Kd with ERI3 worked out at 173 nM; in the series with PIP5K1A, 467 nM; with PUF60, 162 nM.

As for CUGUCCU, the values for the Kd in the series with MRPL38 and with SRSF7 were 40.7 nM and 1000 nM, respectively.

In turn, UAUUUAU had a Kd in the series with FASTKD2 of 3890 nM.

These data come from the supplement of paper PMC6379048.
